Experimental data reported in patent publication US20260285998 (published 2026).
Where a chain is given by its changes, count along the chain named.

B1: P1AG5026 (E04_VH1b/VL1a) (antibody, V domains shown)
VH: QVQLVQSGAEVKKPGASVKVSCKASGYTFTNYWMHWVRQAPGQGLEWMGIIHPNSGSTNYNEKFQGRVTMTVDKSTSTVYMELSSLRSEDTAVYYCARGIYDYPFAYWGQGTLVTVSS
VL: DIQMTQSPSSLSASVGDRVTITCRASESVSIHGTHLMHWYQQKPGKAPKLLIYAASNLESGVPSRFSGSGSGTDFTLTISSLQPEDFATYYCQQSIEDPYTFGGGTKVEIK
B2: P1AG5060 (E04_VH1b/VL1f) (antibody, V domains shown)
VH: B1 VH
VL: B1 VL with N57S, E59Q, G72E
B3: P1AG5034 (E04_VH1b/VL1e) (antibody, V domains shown)
VH: B1 VH
VL: B1 VL with N57S, E59Q
B4: P1AG5059 (E04_VH1a/VL1g) (antibody, V domains shown)
VH: B1 VH with V72R, K74T
VL: B1 VL with Y91F
B5: P1AG5021 (E04_VH1b/VL1g) (antibody, V domains shown)
VH: B1 VH
VL: B1 VL with Y91F
B6: P1AG5043 (E04_VH1a/VL1d) (antibody, V domains shown)
VH: B1 VH with V72R, K74T
VL: B1 VL with E59Q, G72E
B7: P1AG5046 (54_VH1b/VL1a_T699S) (antibody, V domains shown)
VH: EVQLVESGGGLVKPGGSLRLSCAASGFTFSNAWMDWVRQAPGKGLEWIAQITAKSNNYATYYAAPVKGRFTISRDDSKNTLYLQMNSLKTEDTAVYYCTDDGYHWGQGTLVTVSS
VL: AIQMTQSPSSLSASVGDRVTITCRASEDIRNGLAWYQQKPGKAPKLLIYNANSLHSGVPSRFSGSGSGTDFTLTISSLQPEDFATYYCEDTSKYPYTFGQGTKLEIK
B8: P1AG5030 (54_VH1b/VL2a) (antibody, V domains shown)
VH: B7 VH
VL: B7 VL with A1D, S56T
B9: P1AG5014 (54_VH1a_Y292D/VL1a_L1_pGL) (antibody, V domains shown)
VH: B7 VH with I48V, A49G, Y61D
VL: B7 VL with G32D, A34G, S56T
B10: P1AG5028 (54_VH2a/VL1a) (antibody, V domains shown)
VH: B7 VH with V5L, K13Q, I48V, A49S, A64D, P65S, D76N, K89R, T90A
VL: B7 VL with S56T
B11: P1AG5065 (54_VH1a_Y292D/VL1a_T699S) (antibody, V domains shown)
VH: B7 VH with I48V, A49G, Y61D
VL: B7 VL
B12: P1AG5067 (54_VH1a/VL1a_L1_pGL) (antibody, V domains shown)
VH: B7 VH with I48V, A49G
VL: B7 VL with G32D, A34G, S56T
B13: P1AG5064 (54_VH1b/VL1a_N651A_N695S) (antibody, V domains shown)
VH: B7 VH
VL: B7 VL with N50A, N52S, S56T
B14: Teclistamab BCMA arm (antibody, V domains shown)
VH: QLQLQESGPGLVKPSETLSLTCTVSGGSISSGSYFWGWIRQPPGKGLEWIGSIYYSGITYYNPSLKSRVTISVDTSKNQFSLKLSSVTAADTAVYYCARHDGAVAGLFDYWGQGTLVTVSS
VL: SYVLTQPPSVSVAPGQTARITCGGNNIGSKSVHWYQQPPGQAPVVVVYDDSDRPSGIPERFSGSNSGNTATLTISRVEAGDEAVYYCQVWDSSSDHVVFGGGTKLTVLG
B15: P1AG7409 BCMA arm (antibody, V domains shown)
VH: B1 VH with V72R, K74T
VL: B1 VL
B16: P1AG7400 BCMA arm (antibody, V domains shown)
VH: B1 VH with V72R, K74T
VL: B1 VL with N57S, E59Q, G72E
B17: P1AH1062 (5D5 LM4) BCMA arm (antibody)
chain 1: not shown
chain 2: EIVLTQSPGTLSLSPGERATLSCKASQDIDDAINWYQQKPGQAPRLLIYDASLRATGIPDRFSGSGSGTDFTLTISRLEPEDFAVYYCQQSLRTPITFGQGTKLEIKRTVAAPSVFIFPPSDEQLKSGTASVVCLLNNFYPREAKVQWKVDNALQSGNSQESVTEQDSKDSTYSLSSTLTLSKADYEKHKVYACEVTHQGLSSPVTKSFNRGEC
B18: P1AG7397 BCMA arm (antibody, V domains shown)
VH: B7 VH with V5L, K13Q, I48V, A49S, A64D, P65S, D76N, K89R, T90A
VL: B7 VL with A1D, S56T
B19: P1AG7422 BCMA arm (antibody, V domains shown)
VH: B7 VH
VL: B7 VL with S56T

Target: T1, human BCMA-Fc (human)
T1 chain: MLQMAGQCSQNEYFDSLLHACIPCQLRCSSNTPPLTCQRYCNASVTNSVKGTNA
Assay: SPR, 25C
With B1 the Kd was 2.7 nM.
B2 gave a Kd of 3.2 nM.
With B3 the Kd was 3.2 nM.
With B4 the Kd was 2.3 nM.
Work on B5 yielded a Kd of 2.8 nM.
For B6, the Kd was 2.6 nM.
Binder B7 has a Kd of 1.9 nM.
In the case of B8, the Kd is reported as 1.3 nM.
B9 showed a Kd of 1.7 nM.
Work on B10 yielded a Kd of 2.7 nM.
For B11, the Kd was 2.6 nM.
For B12, the Kd was 3.4 nM.
B13 gave a Kd of 3.5 nM.

Each binder was assayed against cynomolgus BCMA-Fc (cynomolgus) (assay: SPR, 25C).
Chain of cynomolgus BCMA-Fc (cynomolgus) (chain, as listed by the source): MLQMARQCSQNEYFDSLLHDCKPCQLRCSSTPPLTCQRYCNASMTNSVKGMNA
Binder B1 has a Kd of 33 nM.
In the case of B2, the Kd is reported as 14 nM.
Binder B3 has a Kd of 32 nM.
B4 showed a Kd of 30 nM.
Work on B5 yielded a Kd of 35 nM.
B6 gave a Kd of 14 nM.
B7 was tested, and the Kd was 3.9 nM.
B8 was tested, and the Kd was 2.2 nM.
B9 gave a Kd of 0.11 nM.
For B10, the Kd was 3.8 nM.
Work on B11 yielded a Kd of 6.4 nM.
With B12 the Kd was 1.7 nM.
B13 was tested, and the Kd was 13 nM.

Target: T2, human BCMA R27P (human)
T2 chain: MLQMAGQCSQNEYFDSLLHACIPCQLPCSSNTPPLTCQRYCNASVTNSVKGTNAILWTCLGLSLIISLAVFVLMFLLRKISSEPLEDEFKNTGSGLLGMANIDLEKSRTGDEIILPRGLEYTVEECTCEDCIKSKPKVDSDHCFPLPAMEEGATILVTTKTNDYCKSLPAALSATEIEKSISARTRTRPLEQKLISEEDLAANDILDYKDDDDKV
Assay: FACS
B14: no binding.

Target: T3, human BCMA (cell surface) (human)
T3 chain: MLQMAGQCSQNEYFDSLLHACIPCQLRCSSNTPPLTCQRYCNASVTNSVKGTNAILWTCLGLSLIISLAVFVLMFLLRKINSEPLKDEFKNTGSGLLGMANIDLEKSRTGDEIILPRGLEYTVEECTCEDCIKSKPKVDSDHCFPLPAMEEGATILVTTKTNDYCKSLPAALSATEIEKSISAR
Assay: FACS
For B15, the EC50 was 21.6 nM.
For B16, the EC50 was 41.5 nM.
B17 was tested, and the EC50 was 103 nM.
Work on B18 yielded an EC50 of 23.7 nM.
B19 showed an EC50 of 10.8 nM.

Target: T4, human BCMA S30del (human)
T4 chain: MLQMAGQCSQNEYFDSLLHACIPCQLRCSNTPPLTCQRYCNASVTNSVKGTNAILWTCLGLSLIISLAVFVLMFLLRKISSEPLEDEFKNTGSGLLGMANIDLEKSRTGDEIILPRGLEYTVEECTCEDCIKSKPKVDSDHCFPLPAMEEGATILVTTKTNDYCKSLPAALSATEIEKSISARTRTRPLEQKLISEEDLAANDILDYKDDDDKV
Assay: FACS
B14: no binding.
